B1: Dihydrolipoyllysine-residue succinyltransferase component of 2-oxoglutarate dehydrogenase complex, P0AFG6 (parent)
chain: MSSVDILVPDLPESVADATVATWHKKPGDAVVRDEVLVEIETDKVVLEVPASADGILDAVLEDEGTTVTSRQILGRLREGNSAGKETSAKSEEKASTPAQRQQASLEEQNNDALSPAIRRLLAEHNLDASAIKGTGVGGRLTREDVEKHLAKAPAKESAPAAAAPAAQPALAARSEKRVPMTRLRKRVAERLLEAKNSTAMLTTFNEVNMKPIMDLRKQYGEAFEKRHGIRLGFMSFYVKAVVEALKRYPEVNASIDGDDVVYHNYFDVSMAVSTPRGLVTPVLRDVDTLGMADIEKKIKELAVKGRDGKLTVEDLTGGNFTITNGGVFGSLMSTPIINPPQSAILGMHAIKDRPMAVNGQVEILPMMYLALSYDHRLIDGRESVGFLVTIKELLEDPTRLLLDV

The variants in the data set derive from B1. The conditions noted are these: Escherichia coli (strain K12), pH 7, structure 1W4H, whole UniProt chain shown.
Setting [1] is: 10 °C, GdnHCl, CD, 3-[morpholino]propanesulfonic acid 50 mM, NaCl 200 mM.
Setting [2] is: 10 °C, GdnHCl, Fluorescence, 3-[morpholino]propanesulfonic acid 50 mM, NaCl 200 mM.
[3] abbreviates: Thermal, CD, Potassium phosphate 50 mM, KCl 200 mM.

“And” between values parts separate entries of the source, which are not always exact repeats. Equal values may be shown once.

A word on the Tm: it is the temperature at the midpoint of the melting transition. For MSSVDILVPDLPESVADATVATWHKKPGDAVVRDEVLVEIETDKVVLEVPASADGILDAVLEDEGTTVTSRQILGRLREGNSAGKETSAKSEEKASTPAQRQQASLEEQNNDALSPAIRRLLGEHNLDASAIKGTGVGGRLTREDVEKHLAKAPAKESAPAAAAPAAQPALAARSEKRVPMTRLRKRVAERLLEAKNSTAMLTTFNEVNMKPIMDLRKQYGEAFEKRHGIRLGFMSFYVKAVVEALKRYPEVNASIDGDDVVYHNYFDVSMAVSTPRGLVTPVLRDVDTLGMADIEKKIKELAVKGRDGKLTVEDLTGGNFTITNGGVFGSLMSTPIINPPQSAILGMHAIKDRPMAVNGQVEILPMMYLALSYDHRLIDGRESVGFLVTIKELLEDPTRLLLDV [A123G], under setting [1], the “ddG of mutation (higher = less stable)” value is 0.93 kcal/mol, the denaturant m value is 0.72 kcal/mol/M, the “denaturant midpoint (higher = more stable)” value (“denaturant midpoint” for short) worked out at 2.55 M and the unfolding free energy is 1.84 kcal/mol. Moreover, under setting [2], the denaturant m value is 0.42 kcal/mol/M and 0.23 kcal/mol/M; the unfolding free energy came to 1.81 kcal/mol. Under setting [3], the Tm came to 40.8 °C, the “ddG of mutation (higher = less stable)” value was found to be 1.02 kcal/mol and the “unfolding enthalpy (van 't Hoff)” value amounted to 20 kcal/mol.

In the case of MSSVDILVPDLPESVADATVATWHKKPGDAVVRDEVLVEIETDKVVLEVPASADGILDAVLEDEGTTVTSRQILGRLREGNSAGKETSAKSEEKASTPAQRQQASLEEQNNDALSPAIRRALAEHNLDASAIKGTGVGGRLTREDVEKHLAKAPAKESAPAAAAPAAQPALAARSEKRVPMTRLRKRVAERLLEAKNSTAMLTTFNEVNMKPIMDLRKQYGEAFEKRHGIRLGFMSFYVKAVVEALKRYPEVNASIDGDDVVYHNYFDVSMAVSTPRGLVTPVLRDVDTLGMADIEKKIKELAVKGRDGKLTVEDLTGGNFTITNGGVFGSLMSTPIINPPQSAILGMHAIKDRPMAVNGQVEILPMMYLALSYDHRLIDGRESVGFLVTIKELLEDPTRLLLDV [L121A], under setting [1], the “ddG of mutation (higher = less stable)” value was 1.6 kcal/mol, the denaturant m value came out at 0.64 kcal/mol/M, the “denaturant midpoint” value came to 1.63 M and the unfolding free energy turned out to be 1.04 kcal/mol. Moreover, under setting [2], the denaturant m value was 0.46 kcal/mol/M and 0.16 kcal/mol/M; the unfolding free energy came to 0.9 kcal/mol. Moreover, under setting [3], the Tm is 32.2 °C, the “ddG of mutation (higher = less stable)” value is 1.67 kcal/mol and the “unfolding enthalpy (van 't Hoff)” value was determined as 16 kcal/mol.

As to MSSVDILVPDLPESVADATVATWHKKPGDAVVRDEVLVEIETDKVVLEVPASADGILDAVLEDEGTTVTSRQILGRLREGNSAGKETSAKSEEKASTPAQRQQASLEEQNNDALGPAIRRLLAEHNLDASAIKGTGVGGRLTREDVEKHLAKAPAKESAPAAAAPAAQPALAARSEKRVPMTRLRKRVAERLLEAKNSTAMLTTFNEVNMKPIMDLRKQYGEAFEKRHGIRLGFMSFYVKAVVEALKRYPEVNASIDGDDVVYHNYFDVSMAVSTPRGLVTPVLRDVDTLGMADIEKKIKELAVKGRDGKLTVEDLTGGNFTITNGGVFGSLMSTPIINPPQSAILGMHAIKDRPMAVNGQVEILPMMYLALSYDHRLIDGRESVGFLVTIKELLEDPTRLLLDV [S115G], under setting [1], the “ddG of mutation (higher = less stable)” value is 0.57 kcal/mol, the denaturant m value was 0.7 kcal/mol/M, the “denaturant midpoint” value was 3.05 M and the unfolding free energy worked out at 2.14 kcal/mol. Besides, under setting [2], the denaturant m value turned out to be 0.21 kcal/mol/M and the unfolding free energy came to 2.31 kcal/mol. For the same variant, under setting [3], the midpoint of thermal melting (Tm) was 53.6 °C, the “ddG of mutation (higher = less stable)” value stood at 0.47 kcal/mol and the “unfolding enthalpy (van 't Hoff)” value came out at 21 kcal/mol.

As to MSSVDILVPDLPESVADATVATWHKKPGDAVVRDEVLVEIETDKVVLEVPASADGILDAVLEDEGTTVTSRQILGRLREGNSAGKETSAKSEEKASTPAQRQQASLEEQNNDALSPAARRLLAEHNLDASAIKGTGVGGRLTREDVEKHLAKAPAKESAPAAAAPAAQPALAARSEKRVPMTRLRKRVAERLLEAKNSTAMLTTFNEVNMKPIMDLRKQYGEAFEKRHGIRLGFMSFYVKAVVEALKRYPEVNASIDGDDVVYHNYFDVSMAVSTPRGLVTPVLRDVDTLGMADIEKKIKELAVKGRDGKLTVEDLTGGNFTITNGGVFGSLMSTPIINPPQSAILGMHAIKDRPMAVNGQVEILPMMYLALSYDHRLIDGRESVGFLVTIKELLEDPTRLLLDV [I118A], under setting [1], the “ddG of mutation (higher = less stable)” value came to 1.24 kcal/mol, the denaturant m value was determined as 0.65 kcal/mol/M, the “denaturant midpoint” value came out at 2.09 M and the unfolding free energy was determined as 1.36 kcal/mol. Further, under setting [2], the denaturant m value was 0.46 kcal/mol/M and 0.2 kcal/mol/M; the unfolding free energy was 1.18 kcal/mol.

As to MSSVDILVPDLPESVADATVATWHKKPGDAVVRDEVLVEIETDKVVLEVPASADGILDAVLEDEGTTVTSRQILGRLREGNSAGKETSAKSEEKASTPAQRQQASLEEQNNDAASPAIRRLLAEHNLDASAIKGTGVGGRLTREDVEKHLAKAPAKESAPAAAAPAAQPALAARSEKRVPMTRLRKRVAERLLEAKNSTAMLTTFNEVNMKPIMDLRKQYGEAFEKRHGIRLGFMSFYVKAVVEALKRYPEVNASIDGDDVVYHNYFDVSMAVSTPRGLVTPVLRDVDTLGMADIEKKIKELAVKGRDGKLTVEDLTGGNFTITNGGVFGSLMSTPIINPPQSAILGMHAIKDRPMAVNGQVEILPMMYLALSYDHRLIDGRESVGFLVTIKELLEDPTRLLLDV [L114A], under setting [1], the “ddG of mutation (higher = less stable)” value came to 0.9 kcal/mol, the denaturant m value amounted to 0.71 kcal/mol/M, the “denaturant midpoint” value was found to be 2.6 M and the unfolding free energy amounted to 1.85 kcal/mol. Under setting [2], the denaturant m value is 0.5 kcal/mol/M and 0.18 kcal/mol/M; the unfolding free energy came to 1.7 kcal/mol. Besides, under setting [3], the melting temperature (Tm) was found to be 41.9 °C, the “ddG of mutation (higher = less stable)” value was 0.94 kcal/mol and the “unfolding enthalpy (van 't Hoff)” value came out at 20 kcal/mol.
